# Where no end group is shown, it is not given here.
# T1: GST-tagged Ifh1 activation domain (AA 703-811) (S. cerevisiae, UniProt P39520 703-811)
# T1 sequence (looked up): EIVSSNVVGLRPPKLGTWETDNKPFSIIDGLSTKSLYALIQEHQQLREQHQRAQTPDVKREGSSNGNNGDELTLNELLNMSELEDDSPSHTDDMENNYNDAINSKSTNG
# B1: TAMRA-labelled Stm1-IDR peptide (AA 226-273) (peptide, UniProt P39015 226-273, looked up)
# peptide: NNNSRNNFNNRRGGRGARKGNNTANATNSANTVQKNRNIDVSNLPSLA
# modifications: also: TAMRA label, position not given here
# Molecular target: T1, GST-tagged Ifh1 activation domain (AA …)
# Experiment: fluorescence polarisation
binder,measurement,value
B1,Kd,~1.4 µM
